We go through two substances from patent US20260226095A1.

By pKd is commonly meant the Kd on a negative log10 scale, so that one unit is a factor of ten. What is called EC50 (read off the curve) is the concentration at which the effect is half-maximal.

pKd: −log10 of the molar value.

Test [1] has as its target human recombinant TNFα (human) (UniProt P01375). In words: SPR, Biacore T200, standard kinetics, antigen immobilized on CM5 chip. (Surface plasmon resonance follows binding to a sensor surface in real time, without labels.)
The target is the same in test [2]. Kind of test: ELISA on human recombinant TNFα, anti-His tag and HRP anti-mouse IgG.

Chain of human recombinant TNFα (human) (P01375 77-233 limits assumed): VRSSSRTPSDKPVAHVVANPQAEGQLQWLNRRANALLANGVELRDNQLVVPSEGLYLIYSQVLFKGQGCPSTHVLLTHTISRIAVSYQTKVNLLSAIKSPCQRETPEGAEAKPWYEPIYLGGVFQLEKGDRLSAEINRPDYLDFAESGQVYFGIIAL

On to scFv Ab3 RREF, for which the pKd in test [1] is 8.03.
scFv Ab3 (Adalimumab) of synthesis: in test [1], the pKd is 8.37 and the RUmax stood at 12 RU. Besides, the EC50 (read off the curve) in test [2] stood at 0.09 mg/L.
